These results are taken from article PMC12112590, “NDF/GLYR1 Promotes RNA Polymerase II Processivity via Pol II Binding and Nucleosome Destabilization” (International Journal of Molecular Sciences, 2025).

This experiment deals with T1, Rpb1 subunit of yeast Pol II (S. cerevisiae, UniProt P04050 1-1733).
T1 construct: Rpb1, largest subunit of S. cerevisiae RNA polymerase II; identified as the labelled band after SDS-PAGE; source: subunit within purified S. cerevisiae Pol II
The experiment in a line: proximity labelling; in vitro biotinylation (BioID): 0-8 pmol hNDF-BirA* with 25 pmol yPol II in 20 μL; 20 mM HEPES pH 7.5, 10 mM MgCl2, 100 mM KCl, 1.5 mM ATP, 5% glycerol, 0.5 μM biotin; 30 °C, 1 h; SDS-PAGE and streptavidin-HRP blot. As to conditions: both partners purified.

T1 sequence (P04050 whole entry): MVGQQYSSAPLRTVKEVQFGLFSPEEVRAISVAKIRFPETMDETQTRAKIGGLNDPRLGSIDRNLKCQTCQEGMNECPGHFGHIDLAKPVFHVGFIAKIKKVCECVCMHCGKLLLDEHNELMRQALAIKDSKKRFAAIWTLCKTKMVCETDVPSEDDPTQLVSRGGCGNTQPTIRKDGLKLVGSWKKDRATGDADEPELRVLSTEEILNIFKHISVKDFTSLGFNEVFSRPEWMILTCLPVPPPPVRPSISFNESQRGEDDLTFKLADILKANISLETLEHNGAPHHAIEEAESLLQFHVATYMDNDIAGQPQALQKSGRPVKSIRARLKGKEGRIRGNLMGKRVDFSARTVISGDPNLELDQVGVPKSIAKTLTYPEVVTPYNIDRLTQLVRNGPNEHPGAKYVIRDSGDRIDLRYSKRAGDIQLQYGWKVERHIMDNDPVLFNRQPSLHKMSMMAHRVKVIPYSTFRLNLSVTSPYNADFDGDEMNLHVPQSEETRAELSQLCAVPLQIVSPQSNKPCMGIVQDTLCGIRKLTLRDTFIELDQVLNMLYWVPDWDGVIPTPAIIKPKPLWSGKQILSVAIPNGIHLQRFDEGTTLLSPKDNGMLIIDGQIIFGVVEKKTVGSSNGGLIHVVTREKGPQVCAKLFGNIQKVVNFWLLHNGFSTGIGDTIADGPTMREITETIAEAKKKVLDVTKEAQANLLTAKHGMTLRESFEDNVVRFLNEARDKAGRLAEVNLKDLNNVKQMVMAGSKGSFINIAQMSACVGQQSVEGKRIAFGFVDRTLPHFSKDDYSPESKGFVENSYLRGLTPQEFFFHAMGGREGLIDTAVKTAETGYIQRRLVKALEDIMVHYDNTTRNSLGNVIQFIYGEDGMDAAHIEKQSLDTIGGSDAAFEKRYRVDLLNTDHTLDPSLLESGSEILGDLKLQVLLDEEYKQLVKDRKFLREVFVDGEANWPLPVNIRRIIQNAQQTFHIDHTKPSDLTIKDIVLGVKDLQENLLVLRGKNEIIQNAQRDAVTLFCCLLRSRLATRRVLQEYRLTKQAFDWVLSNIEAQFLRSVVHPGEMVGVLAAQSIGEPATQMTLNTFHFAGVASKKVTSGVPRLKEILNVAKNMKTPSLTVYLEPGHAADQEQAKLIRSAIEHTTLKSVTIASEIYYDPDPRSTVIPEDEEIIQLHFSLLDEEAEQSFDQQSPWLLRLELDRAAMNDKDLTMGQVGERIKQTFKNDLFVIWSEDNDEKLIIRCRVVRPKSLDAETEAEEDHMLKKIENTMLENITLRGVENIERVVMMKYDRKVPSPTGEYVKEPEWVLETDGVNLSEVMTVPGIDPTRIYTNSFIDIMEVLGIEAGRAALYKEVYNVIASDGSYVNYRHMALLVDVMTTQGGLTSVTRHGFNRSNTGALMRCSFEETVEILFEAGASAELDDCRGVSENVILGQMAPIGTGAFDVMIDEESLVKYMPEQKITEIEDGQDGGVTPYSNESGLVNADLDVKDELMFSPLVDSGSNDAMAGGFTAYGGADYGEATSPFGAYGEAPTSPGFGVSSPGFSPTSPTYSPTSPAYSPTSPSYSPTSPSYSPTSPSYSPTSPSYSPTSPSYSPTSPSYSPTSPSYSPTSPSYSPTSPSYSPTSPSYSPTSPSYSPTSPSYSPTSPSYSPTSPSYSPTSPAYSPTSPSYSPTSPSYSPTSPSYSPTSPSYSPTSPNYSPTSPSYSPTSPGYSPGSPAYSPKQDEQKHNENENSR

B1: BirA*-hNDF fusion protein (natural protein, human, UniProt Q49A26 1-553, looked up)
chain: MAAVSLRLGDLVWGKLGRYPPWPGKIVNPPKDLKKPRGKKCFFVKFFGTEDHAWIKVEQLKPYHAHKEEMIKINKGKRFQQAVDAVEEFLRRAKGKDQTSSHNSSDDKNRRNSSEERSRPNSGDEKRKLSLSEGKVKKNMGEGKKRVSSGSSERGSKSPLKRAQEQSPRKRGRPPKDEKDLTIPESSTVKGMMAGPMAAFKWQPTASEPVKDADPHFHHFLLSQTEKPAVCYQAITKKLKICEEETGSTSIQAADSTAVNGSITPTDKKIGFLGLGLMGSGIVSNLLKMGHTVTVWNRTAEKCDLFIQEGARLGRTPAEVVSTCDITFACVSDPKAAKDLVLGPSGVLQGIRPGKCYVDMSTVDADTVTELAQVIVSRGGRFLEAPVSGNQQLSNDGMLVILAAGDRGLYEDCSSCFQAMGKTSFFLGEVGNAAKMMLIVNMVQGSFMATIAEGLTLAQVTGQSQQTLLDILNQGQLASIFLDQKCQNILQGNFKPDFYLKYIQKDLRLAIALGDAVNHPTPMAAAANEVYKRAKALDQSDNDMSAVYRAYIH
notes: human NDF / GLYR1 fused to the promiscuous biotin ligase BirA*; The name is printed in both orders (BirA*-hNDF, hNDF-BirA*); the construct's name puts BirA* before hNDF; also called hNDF-BirA*; hNDF-BirA; source: pET21b-N-His6-BirA*-hNDF expression construct, purified as previously described [44]; not shown: BirA* (promiscuous biotin ligase), N-terminal, kept
For B1, the binding result is reported as “binds”.
